Assay results as given in the DeepSol protein solubility set.

test: soluble on expression in E. coli; label from the status in PepcDB or PDB records

| Sequence | soluble on expression in E. coli |
| --- | --- |
| MKILFVAAEGAPFSKTGGLGDVIGALPKSLVKAGHEVAVILPYYDMVEAKFGNQIEDVLHFEVSVGWRRQYCGIKKTVLNGVTFYFIDNQYYFFRGHVYGDFDDGERFAFFQLAAIEAMERIDFIPDLLHVHDYHTAMIPFLLKEKYRWIQAYEDIETVLTIHNLEFQGQFSEGMLGDLFGVGFERYADGTLRWNNCLNWMKAGILYANRVSTVSPSYAHEIMTSQFGCNLDQILKMESGKVSGIVNGIDADLYNPQTDALLDYHFNQEDLSGKAKNKAKLQERVGLPVRADVPLVGIVSRLTRQKGFDVVVESLHHILQEDVQIVLLGTGDPAFEGAFSWFAQIYPDKLSTNITFDVKLAQEIYAACDLFLMPSRFEPCGLSQMMAMRYGTLPLVHEVGGLRDTVRAFNPIEGSGTGFSFDNLSPYWLNWTFQTALDLYRNHPDIWRNLQKQAMESDFSWDTACKSYLDLYHSLVN | not soluble |
| MSLTEKTKEVRLDFFEALGMVTALMMDCDYKHWFVADISRNIIPALQAGQCKVYFDEEGRPNAFVTWALVDNDDHEALLREGCNPPPGKWASGNHLWFIDIVAPVGNILPRIKRDLHQNYFADHNKAYAIRSKADGAIRRVQVWKNPLVTRPTRSFRIGADIETHDDEGHHHHHH | soluble |
| MANQVNGNAVQLKEEEEPMDTSSVTHTEHYKTLIEAGLPQKVAERLDEIFQTGLVAYVDLDERAIDALREFNEEGALSVLQQFKESDLSHVQNKSAFLCGVMKTYRQREKQGSKVQESTKGPDEAKIKALLERTGYTLDVTTGQRKYGGPPPDSVYSGVQPGIGTEVFVGKIPRDLYEDELVPLFEKAGPIWDLRLMMDPLSGQNRGYAFITFCGKEAAQEAVKLCDSYEIRPGKHLGVCISVANNRLFVGSIPKNKTKENILEEFSKVTGLTEGLVDVILYHQPDDKKKNRGFCFLEYEDHKSAAQARRRLMSGKVKVWGNVVTVEWADPVEEPDPEVMAKVKVLFVRNLATTVTEEILEKSFSEFGKLERVKKLKDYAFVHFEDRGAAVKAMDEMNGKEIEGEEIEIVLAKPPDKKRKERQAARQASRSTAYEDYYYHPPPRMPPPIRGRGRGGGRGGYGYPPDYYGYEDYYDDYYGYDYHDYRGGYEDPYYGYDDGYAVRGRGGGRGGRGAPPPPRGRGAPPPRGRAGYSQRGAPLGPPRGSRGGRGGPAQQQRGRGSRGSRGNRGGNVGGKRKADGYNQPDSKRRQTNNQQNWGSQPIAQQPLQQGGDYSGNYGYNNDNQEFYQDTYGQQWK | soluble |
| MGSDKIHHHHHHMLGRSANGIFWLFRYLERAENSARAIEAGFRLALTRDASDASDEWRSLIVTLGLQNAYEAKYGPGFTGPHVFNFILRDRENPGSVLAMMEMARTNARMVRAGITREVWESVNDGWMKLREALARPVTETRLGDVLDLVRRQSTQVRGAIEGTMLRNEIYNFARLGSFIERADNTARILDVKYYVLLPSVSYVGSSLDNVQWENVLRSLAGERAYRWLNAGRMDPRGIAEFLILDERFPRSLAFCYSKLRSNLASLAREYGGEMHSHEILRDADTQLHTATIEAIFDQGLHEFIGKFIACNTALALQIQRDYRFTE | not soluble |
| MGSDKIHHHHHHMMYQTYDLYSRSAEMMNGFISVNQQLLTHPFNPFSNTLLGKSINAALDSAYHHTKVYDKQPFDIKTTIIDGETVNIDEQVILAKPFCNLIHFKQDTKVQQPKLFLVAPLSGHHATLLKATIERLILDHDVYITDWLDAKNVPLSEGNFDFDDYVTYLIEFMKEIGEDTHVLAVCQPAVQALIATAVLAKDKDAATPKSLTIIAGPIDTSINPNELNKYASSKDLSWFENNVIMTVPERFPGAGRKVYPGFIQLTSFMAMNIENHVKKHTDYFGHVFHGKEDKQESHRDFYDEYLAVLDLNSEFYLETLDRVFINQDLANGKMTYHGELVDLSAITDTALHTIEGKNDDICSLGQTQAAQALCSGIPEQNKLDQVFDGVGHFGTFSGSAFRERIAPSIAEFIQKHK | not soluble |
| MNGYVYLVGAGPGDEGLITKKAIECLKRADIVLYDRLLNPFFLSYTKQTCELMYCGKMPKNHIMRQEMINAHLLQFAQEGKIVVRLKGGDPSIFGRVGEEAETLAAANIPYEIVPGITSSTAASSYAGIPLTHRNYSNSVTLLTGHAKGSLTDHGKYNSSHNSDTIAYYMGIKNLPTICKNLRQAGKKEDTPVAVIEWGTTGKQRVVTGTLSTIVSIVKNENISNPSMTIVGDVVSLRDQIAWKEHKPLHGKKVLFTSATNKTSVMKQKLQEAGAEIYQIPTFKKEEYTLTLEQIIEIFNVNRLVFCSAESVEILMQSCSKYKKDIRSLQAELQHMNVATQEKLMQYGLLSKEAKFSSDTTVYLGRNINRIAFIQEKIGAGSYMMTHKYTIDHRFDEVHSRMLSEFLWDSIVFEGRASIDTFLAEVKRLGFLDIVTLPFSYTDVPTLRYANKVGFHNIDHQLQETLMQKDMVRQ | not soluble |
| SFQGQRGWFCGSVSQDLRQFWVAEGGTISDPRAADFLFSCDASHPDTLRIYQSLDYIEDNATVFHAYYLSAVANAKIKNSVALGHFILPPACLQKEIRRKIGSFIWEQDQHFLIEKHDEVTPNEIKTLRENSELATEHKKELSKSPEKHFIRTPVVEKQMYFPLQNYPVNNMVTGYISIDAMKKFLGELHDFIPGTSGYLAYHVQNEINMSAIKNKLKRK | soluble |
| MSLSYTEEWVTARARGAYEHGRASFDVRPERTALLVIDMQDEFVRPGWSPYWVPAATRMAPRLRRLIEGCRSAAVPVIWSIFDDTHLGLDRPKALGYLPHADTDWRRPGPAEVWDQMGRRPDEALIRKPSYGAFYDTPLDTMLRNLGRDTVIVTGTLTNYCCGTTARQAYERGYKVVFGADVTATDDESRQEPELAVLRKGFALVLTAEEITNQLAEGHHHHHH | soluble |
| MPELKVVVSIKQVPDVDELRIDPVTNNLVREGVPAVINPPDLHAIEEAVRLKERYGAKTIVITMGPPQADSALREALAMGIDEAYLISDRAMAGADTWATSYTISKAVQKLGGADLILFGRRAVDGETEQVGPQTGKWLGLPVIGYVSEIKSLEKDKIVVTRTTEFDEEVIEAPVPVVLTILEVANKPRQPDILSLIKAKTAKVTVWNKDDIKAEPNKIGLAGSPTKVIKVQPPPKTRKAEIIDGKKDVEKAAKWFLDKIFESLKE | not soluble |
| SSRKSGIGHEASLKRKAEEKLESYRKKIHMKNQAEEKAAEQFRMRLKNKQDEMKLEGDLRRSQRACQQLDVQKNIQVPREAWYWLRLEEETEEDEEEKEQDEDEYKSEDLSVLEKLQILTSYLREEHLYCIWCGTAYEDKEDLSSNCPGPTSADHD | soluble |
| MKEVQETAEKIRTMEIRGAGRIAKAAAEVIRDYAAGLEAASIEEFAAGITEVSNYLISTRPTAVSLPNAVKLSSRYSSDNVENARKEVINNANLFIERADKALGRIGKIGAGRVQDGDVIMTHCNSHAALSIITTAFEDGKNISVIATESRPRRQGLLTVRRLNGFGIPTTLIVDSAVRYYMKDVDKVIVGADAIAANGALVNKIGTSQLALAAHEARKSFMVAAETFKFSPSTILGIPIEIEERSTDEVVDPSVLAELPHVQVKNPAFDFTPSEYIDMIVTDIGIIPPAMAYIVIKEHLGWEFEEIAAALEHHHHHH | not soluble |
| MKKDILEKGAILQRDRETYAIAPHIPGGITDTATLRKLCDVADKYGVKELKLTSAQRIALFGVKEEDLDAIWSDLDQQPGAAIGLCVRSVKICPGTTWCKRGVQDSVSLGLKIDAIYHAMELPNKMKMGISGCMLNCAETMLKDVGVVGTPKGWRIYVGGNAGARPRIGDLLVELGPDEDKVLAVIADLVEWYRSSGSEQRLGRVVEQMGFDAFKTAVLGAKATP | not soluble |
| MGSDKIHHHHHHMDEIELRHILHMNPELSFKEYRTKETLRKAVIEIGYEKIIEVAGTGLVIEKKETEDPYVVLRADMDALPIKEETGWEFASRNEYMHACGHDFHMSALYGAMKRLRNVKKNFLFVFQPAEETGGGAKEVVDFLKDKYEIKAAVGFHVTDEYDAGTVASRPGVLFASATEFDVYFKGVPAHVAFAEKGKDALKAAVSFLGWLYNKKWNALVGVGKISGGRARNIVPDEIKLEGTIRSEALRITEEVISNMVKQLGELKEEMGVDFAVERGSVYPEVKVDQNLFETLRETCQRLGFSFVECDMKWTGEDFGYFSQVFPSLLFWFGVGEGERFGLHHPRFLPNDRYIPMAADLLAELAMVI | not soluble |
| MHPPIKIQTILLFILTTVHCSAKRLPQIYWNSTNPLVERYAAIGDTLDIVCPFFDENSDELTEQSIIYRVTEEEYENCERRSKAKELGRCTQPYQEEKLKVAFRLMSPNPSGLDYRPGVTYYFISTSTGSRKGLYNEQGGLCASHNLKMVIHITDRNGDIGPHHHRHHHKKTTTTTTTSTSTSTPKTIPPVVEMDSSAEKLWEQFYEKVMPIDNTWPEITRGERVTLYQGNKKDEYEQVPAEVVDFEIHEIGDVESLYSSSGRLRYVLLLPALLLLRIF | not soluble |
| ADVPAGVQLADKQTLVRNNGSEVQSLDPHKIEGVPESNVSRDLFEGLLISDVEGHPSPGVAEKWENKDFKVWTFHLRENAKWSDGTPVTAHDFVYSWQRLADPNTASPYASYLQYGHIANIDDIIAGKKPATDLGVKALDDHTFEVTLSEPVPYFYKLLVHPSVSPVPKSAVEKFGDKWTQPANIVTNGAYKLKNWVVNERIVLERNPQYWDNAKTVINQVTYLPISSEVTDVNRYRSGEIDMTYNNMPIELFQKLKKEIPNEVRVDPYLCTYYYEINNQKAPFNDVRVRTALKLALDRDIIVNKVKNQGDLPAYSYTPPYTDGAKLVEPEWFKWSQQKRNEEAKKLLAEAGFTADKPLTFDLLYNTSDLHKKLAIAVASIWKKNLGVNVNLENQEWKTFLDTRHQGTFDVARAGWCADYNEPTSFLNTMLSDSSNNTAHYKSPAFDKLIADTLKVADDTQRSELYAKAEQQLDKDSAIVPVYYYVNARLVKPWVGGYTGKDPLDNIYVKNLYIIKH | soluble |
| MSLSKILPVVTACLLATTMGASASSIPEKASVCSGCHGQDGMGQPNIAPMIAGLNANYLNTQIELFLSGERQNVVMQGMAKELSDPAVRKEVMNYFANLPSYEFTNPEQRGDQADIRNPYRKLIFQGDWDRNIPACATCHGASGMGVDKFPRLASQHADYLKTQLMAWKIGTRSGDPLNMMGTIAKNLTDEEIENLSYYFASLRYEGHHHHHH | not soluble |
| MSASKILSQKIKVALVQLSGSSPDKMANLQRAATFIERAMKEQPDTKLVVLPECFNSPYSTDQFRKYSEVINPKEPSTSVQFLSNLANKFKIILVGGTIPELDPKTDKIYNTSIIFNEDGKLIDKHRKVHLFDVDIPNGISFHESETLSPGEKSTTIDTKYGKFGVGICYDMRFPELAMLSARKGAFAMIYPSAFNTVTGPLHWHLLARSRAVDNQVYVMLCSPARNLQSSYHAYGHSIVVDPRGKIVAEAGEGEEIIYAELDPEVIESFRQAVPLTKQRRFDVYSDVNAH | soluble |
| MAMGKPMQVSRYWRHFREKYRLIGGKCENGHLLFPKRPICPICGSRNIEEFQFSGKGKVITWTIVRNPPSGFEYYKPYPLALVQLEEGPVVLAQLTDVEPEEIKEGMEVEMVTRKIREFDEDGLILYGYKFRPIIKSELEHHHHHH | not soluble |
| MPSKLALIQELPDRIQTAVEAAMGMSYQDAPNNVRRDLDNLHACLNKAKLTVSRMVTSLLEKPSVVAYLEGKA | soluble |
